The text below walks through data of PMC3087504, “DNA Damage in Oocytes Induces a Switch of the Quality Control Factor TAp63α from Dimer to Tetramer” (Cell, 2011).

Data set [1] concerns the molecule itself. Put plainly: SEC; lysate of 16 ovaries of non-irradiated or γ-irradiated (0.52 Gy) P5 mice, Superose 6 PC 3.2/30, 4°C, 50 mM sodium phosphate, 100 mM NaCl, phosphatase inhibitors; fractions blotted with 4A4; dimer fraction 1.55 ml, tetramer fraction 1.3 ml.
Data set [2] deals with the molecule itself. The data set is described as follows: SEC; lysate of ovaries of irradiated mice incubated with λ-Protein Phosphatase (30°C, 45 min, 1.25 mM MnCl2), then Superose 6 PC 3.2/30 and western blot.
Data set [3] deals with the molecule itself. The data set is described as follows: AUC; sedimentation velocity, 45,000 rpm, 4 μM protein, 4°C, 20 mM potassium phosphate pH 7.5, 200 mM NaCl, 2 mM dithiothreitol.

B1: TAp63α in oocytes of non-irradiated mice (natural protein, UniProt O88898-1 40-680, looked up)
chain: MSQSTQTSEFLSPEVFQHIWDFLEQPICSVQPIELNFVDEPSENGATNKIEISMDCIRMQDSDLSDPMWPQYTNLGLLNSMDQQIQNGSSSTSPYNTDHAQNSVTAPSPYAQPSSTFDALSPSPAIPSNTDYPGPHSFDVSFQQSSTAKSATWTYSTELKKLYCQIAKTCPIQIKVMTPPPQGAVIRAMPVYKKAEHVTEVVKRCPNHELSREFNEGQIAPPSHLIRVEGNSHAQYVEDPITGRQSVLVPYEPPQVGTEFTTVLYNFMCNSSCVGGMNRRPILIIVTLETRDGQVLGRRCFEARICACPGRDRKADEDSIRKQQVSDSAKNGDGTKRPFRQNTHGIQMTSIKKRRSPDDELLYLPVRGRETYEMLLKIKESLELMQYLPQHTIETYRQQQQQQHQHLLQKQTSMQSQSSYGNSSPPLNKMNSMNKLPSVSQLINPQQRNALTPTTMPEGMGANIPMMGTHMPMAGDMNGLSPTQALPPPLSMPSTSHCTPPPPYPTDCSIVSFLARLGCSSCLDYFTTQGLTTIYQIEHYSMDDLASLKIPEQFRHAIWKGILDHRQLHDFSSPPHLLRTPSGASTVSVGSSETRGERVIDAVRFTLRQTISFPPRDEWNDFNFDMDSRRNKQQRIKEEGE
notes: endogenous murine TAp63α of oocytes; also called TAp63α (NIRR); source: endogenous, ovary lysate of non-irradiated P5 CD-1 mice
In the case of B1, the “stoichiometry N” value in data set [1] came to 2.

B2: λ-phosphatase-treated TAp63α obtained from irradiated oocytes (natural protein, UniProt O88898-1 40-680, looked up)
chain: B1 chain
notes: endogenous murine TAp63α of irradiated oocytes after dephosphorylation in the lysate; kept apart because it was first phosphorylated in vivo and then dephosphorylated; also called dephosphorylated TAp63α (IRR + λPP); source: endogenous, ovary lysate of irradiated P5 mice, treated with λ-Protein Phosphatase (30°C, 45 min)
On to B2, for which, in data set [2], the “stoichiometry N” value is 4.

B3: phosphorylated TAp63α in oocytes of γ-irradiated mice (natural protein, UniProt O88898-1 40-680, looked up)
chain: B1 chain
modifications: phosphorylated after γ-irradiation; sites not stated
notes: endogenous murine TAp63α of oocytes, phosphorylated after DNA damage; both dimer and tetramer fractions hold protein after irradiation; also called TAp63α (IRR); source: endogenous, ovary lysate of P5 CD-1 mice 6 hr after 0.52 Gy γ-irradiation
B3: the “stoichiometry N” value in data set [1] amounted to 4.

B4: MBP-TAp63γ (natural protein, mouse, UniProt O88898-5 40-483, looked up)
chain: MSQSTQTSEFLSPEVFQHIWDFLEQPICSVQPIELNFVDEPSENGATNKIEISMDCIRMQDSDLSDPMWPQYTNLGLLNSMDQQIQNGSSSTSPYNTDHAQNSVTAPSPYAQPSSTFDALSPSPAIPSNTDYPGPHSFDVSFQQSSTAKSATWTYSTELKKLYCQIAKTCPIQIKVMTPPPQGAVIRAMPVYKKAEHVTEVVKRCPNHELSREFNEGQIAPPSHLIRVEGNSHAQYVEDPITGRQSVLVPYEPPQVGTEFTTVLYNFMCNSSCVGGMNRRPILIIVTLETRDGQVLGRRCFEARICACPGRDRKADEDSIRKQQVSDSAKNGDAFRQNTHGIQMTSIKKRRSPDDELLYLPVRGRETYEMLLKIKESLELMQYLPQHTIETYRQQQQQQHQHLLQKHLLSACFRNELVEPRGEAPTQSDVFFRHSNPPNHSVYP
notes: 193 amino acids less per monomer than TAp63α; cloned into pMAL-c4X; almost equal distribution between dimers and tetramers at 30 nM; source: E. coli (T7 express), purified (Ni-Sepharose, Amylose resin, SEC); not shown: MBP, N-terminal, kept
Regarding B4, the “stoichiometry N” value in data set [3] is 4.
